The experiment concerns the target PA28γ (endogenous, U2OS cells) (human (endogenous in U2OS)) (UniProt P61289). The experiment is described as follows: proximity ligation.

Drawing on paper doi:10.1101/716332, this text covers PLA dots per nucleus (PLA dots per nucleus) for one substance.

A value given as a limit tells only on which side of the number the result lay.

UniProt P61289, sequence (P61289 whole entry): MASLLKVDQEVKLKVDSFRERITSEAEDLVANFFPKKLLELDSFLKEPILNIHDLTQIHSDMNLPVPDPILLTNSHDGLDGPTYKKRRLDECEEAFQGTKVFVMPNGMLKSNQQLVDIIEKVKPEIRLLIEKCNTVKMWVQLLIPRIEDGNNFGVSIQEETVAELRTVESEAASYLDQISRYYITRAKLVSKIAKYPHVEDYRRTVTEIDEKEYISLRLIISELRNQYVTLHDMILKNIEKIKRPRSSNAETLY

With “20S proteasome (endogenous, U2OS cells), detected by its α4 subunit (from UniProt O14818 1-248) (complex)”, the PLA dots per nucleus (PLA dots per nucleus) was less than 60.
